Results published in paper PMC10402096 (bioRxiv, 2023).
Each block holds one molecule with its values, some of them ahead of it.

What was measured:
[1] = biological target: recombinant 6His-TTLL12 (Tubulin Tyrosine Ligase-Like 12) (UniProt Q14166); assay: pull-down
[2] = biological target: T1, recombinant GST-Rab19 (UniProt A4D1S5 1-217); assay: pull-down
T1 sequence (looked up): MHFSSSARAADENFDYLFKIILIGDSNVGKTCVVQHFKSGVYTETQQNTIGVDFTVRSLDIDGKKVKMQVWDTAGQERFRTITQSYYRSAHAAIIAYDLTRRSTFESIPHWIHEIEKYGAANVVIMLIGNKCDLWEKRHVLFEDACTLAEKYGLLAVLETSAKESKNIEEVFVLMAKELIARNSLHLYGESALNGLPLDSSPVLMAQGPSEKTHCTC

fold increase in tubulin co-precipitation with Ni-beads when TTLL12 is present [1]: 3 fold
Molecule: purified porcine brain tubulin (α/β-tubulin heterodimer, kept unpolymerized at 4°C) (from UniProt P02550 1-451; P02554 1-445) (complex)

fold increase in TTLL12 binding against the GST-only control [2]: ~5 fold
B1: recombinant 6His-TTLL12 (Tubulin Tyrosine Ligase-Like 12) (natural protein, UniProt Q14166 1-644, looked up)
chain: MEAERGPERRPAERSSPGQTPEEGAQALAEFAALHGPALRASGVPERYWGRLLHKLEHEVFDAGEVFGIMQVEEVEEEEDEAAREVRKQQPNPGNELCYKVIVTRESGLQAAHPNSIFLIDHAWTCRVEHARQQLQQVPGLLHRMANLMGIEFHGELPSTEAVALVLEEMWKFNQTYQLAHGTAEEKMPVWYIMDEFGSRIQHADVPSFATAPFFYMPQQVAYTLLWPLRDLDTGEEVTRDFAYGETDPLIRKCMLLPWAPTDMLDLSSCTPEPPAEHYQAILEENKEKLPLDINPVVHPHGHIFKVYTDVQQVASSLTHPRFTLTQSEADADILFNFSHFKDYRKLSQERPGVLLNQFPCENLLTVKDCLASIARRAGGPEGPPWLPRTFNLRTELPQFVSYFQQRERWGEDNHWICKPWNLARSLDTHVTKSLHSIIRHRESTPKVVSKYIESPVLFLREDVGKVKFDIRYIVLLRSVRPLRLFVYDVFWLRFSNRAFALNDLDDYEKHFTVMNYDPDVVLKQVHCEEFIPEFEKQYPEFPWTDVQAEIFRAFTELFQVACAKPPPLGLCDYPSSRAMYAVDLMLKWDNGPDGRRVMQPQILEVNFNPDCERACRYHPTFFNDVFSTLFLDQPGGCHVTCLV
